# Changes are numbered by the printed parent chain. Numbers in names are those of the source.
# B1: His-ISG65 18-363 (extracellular domain of ISG65 of Trypanosoma brucei gambiense, Tbg.972.2.1600, with N-terminal hexa-histidine tag) (receptor)
# chain: MGSSHHHHHHSSGLVPRGSHMLLVIGSEDNRVPGDKKLTKEGAAALCKMKHLADKVAKERSQELKDRTQNFAGYIEFELYRIDYWLEKLNGPKGRKDGYAKLSDSDIEKVKEIFNKAKDGITKQLPEAKKAGEEAGKLHTEVKKAAENARGQDLDDDTAKSTGLYRVLNWYCITKEERHNATPNCDGIQFRKHYLSVNRSAIDCSSTSYEENYDWSANALQVALNSWEDVKPKKLESAGSDKNCNIGQSSESHPCTMTEEWQTPYKETVEKLRELEDAYQRGKKAHDAMLGYANTAYAVNTKVEQEKPLTEVIAAAKEAGKKGAKIIIPAAAPATPTNSTKNDDSAPTEHVDRGIATNETQVEVGID
# notes: Expressed in E. coli T7 shuffle cells; also called ISG65 wt
# B2: His-ISG65 18-363 Y293A (receptor)
# chain: B1 chain with Y297A
# notes: also called ISG65 Y293A
# B3: His-ISG65 18-363-Avi, biotinylated at the C-terminal Avi-tag (receptor)
# chain: B1 chain
# modifications: site-specific biotinylation of the C-terminal Avi-tag
# notes: SPR ligand captured on a Series S sensor chip CAP; also called ISG65-Avi; biotinylated ISG65; not shown: C-terminal Avi-tag
# Legend:
# [1] = biological target: T1, C3b (human complement C3b) (human, UniProt P01024 23-667; P01024 749-1663); assay: cell-based or functional assay
# T1 sequence (P01024 23-667 limits assumed, chain 1 of 2): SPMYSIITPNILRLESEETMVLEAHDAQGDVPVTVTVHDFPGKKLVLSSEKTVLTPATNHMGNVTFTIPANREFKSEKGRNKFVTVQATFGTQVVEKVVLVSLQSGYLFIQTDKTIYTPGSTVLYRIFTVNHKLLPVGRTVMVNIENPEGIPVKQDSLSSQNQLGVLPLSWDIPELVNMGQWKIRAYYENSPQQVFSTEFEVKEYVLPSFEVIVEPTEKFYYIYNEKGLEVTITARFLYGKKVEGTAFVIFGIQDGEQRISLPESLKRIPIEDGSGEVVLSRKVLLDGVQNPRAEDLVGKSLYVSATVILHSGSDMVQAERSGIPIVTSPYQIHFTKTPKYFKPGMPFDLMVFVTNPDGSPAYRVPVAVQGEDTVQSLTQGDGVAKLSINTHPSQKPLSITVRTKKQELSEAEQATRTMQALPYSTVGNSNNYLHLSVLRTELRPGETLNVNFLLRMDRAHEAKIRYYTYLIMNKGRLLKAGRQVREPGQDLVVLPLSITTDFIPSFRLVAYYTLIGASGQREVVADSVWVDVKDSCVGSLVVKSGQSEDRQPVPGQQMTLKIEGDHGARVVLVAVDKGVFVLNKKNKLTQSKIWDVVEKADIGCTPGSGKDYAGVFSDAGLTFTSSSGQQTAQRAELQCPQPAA
# T1 sequence (P01024 749-1663 limits assumed, chain 2 of 2): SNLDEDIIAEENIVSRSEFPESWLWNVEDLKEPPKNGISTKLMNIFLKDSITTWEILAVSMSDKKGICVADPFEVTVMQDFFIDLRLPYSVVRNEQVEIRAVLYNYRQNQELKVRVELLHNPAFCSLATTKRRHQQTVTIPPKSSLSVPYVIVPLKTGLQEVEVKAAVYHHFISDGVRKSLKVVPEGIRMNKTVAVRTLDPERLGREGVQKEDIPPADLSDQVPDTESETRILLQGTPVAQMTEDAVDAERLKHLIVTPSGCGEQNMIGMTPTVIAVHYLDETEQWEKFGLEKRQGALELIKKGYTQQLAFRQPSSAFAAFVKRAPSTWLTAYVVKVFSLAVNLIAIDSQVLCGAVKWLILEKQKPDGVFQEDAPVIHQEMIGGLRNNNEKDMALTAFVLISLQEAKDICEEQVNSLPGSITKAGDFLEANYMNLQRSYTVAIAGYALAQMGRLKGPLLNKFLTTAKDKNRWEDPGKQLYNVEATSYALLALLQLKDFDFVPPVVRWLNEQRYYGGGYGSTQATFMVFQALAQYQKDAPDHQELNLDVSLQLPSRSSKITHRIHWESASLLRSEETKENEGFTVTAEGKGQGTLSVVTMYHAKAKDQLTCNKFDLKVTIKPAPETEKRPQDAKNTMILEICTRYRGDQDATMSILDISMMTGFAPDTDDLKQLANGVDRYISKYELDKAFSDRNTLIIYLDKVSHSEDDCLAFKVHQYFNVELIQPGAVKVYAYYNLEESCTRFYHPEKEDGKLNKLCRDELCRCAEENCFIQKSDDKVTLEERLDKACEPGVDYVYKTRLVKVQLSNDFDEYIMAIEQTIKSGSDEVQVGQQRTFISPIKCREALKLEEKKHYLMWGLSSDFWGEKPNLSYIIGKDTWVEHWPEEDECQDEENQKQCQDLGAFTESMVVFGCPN
# [2] = biological target: T2, His-C3d-Avi, biotinylated (human complement C3d with N-terminal His-tag and C-terminal Avi-tag) (human, UniProt P01024 996-1303, site-specific biotinylation of the C-terminal Avi-tag); assay: SPR BIAcore T200, biotinylated C3d-Avi immobilised, ISG65 as analyte
# T2 construct: domain: C3d; SPR ligand for the ISG65 mutants; not shown: N-terminal His-tag (pET15b); C-terminal Avi-tag
# T2 sequence (P01024 996-1303 limits assumed): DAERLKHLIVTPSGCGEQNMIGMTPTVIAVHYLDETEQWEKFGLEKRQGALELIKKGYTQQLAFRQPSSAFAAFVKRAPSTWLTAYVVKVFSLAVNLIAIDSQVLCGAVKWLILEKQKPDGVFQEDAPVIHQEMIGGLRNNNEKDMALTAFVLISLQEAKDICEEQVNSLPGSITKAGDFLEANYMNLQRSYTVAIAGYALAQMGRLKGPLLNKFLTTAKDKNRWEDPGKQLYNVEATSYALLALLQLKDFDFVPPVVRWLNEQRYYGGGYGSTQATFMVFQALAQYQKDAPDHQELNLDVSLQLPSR
# [3] = biological target: T2, His-C3d-Avi, biotinylated (human …); assay: SPR BIAcore T200, biotinylated C3d-Avi immobilised, ISG65 as analyte; kon1
# [4] = biological target: T2, His-C3d-Avi, biotinylated (human …); assay: SPR BIAcore T200, biotinylated C3d-Avi immobilised, ISG65 as analyte; koff1
# [5] = biological target: T2, His-C3d-Avi, biotinylated (human …); assay: SPR, biotinylated C3d-Avi immobilised, ISG65 Y293A as analyte
# His-C3d E1110A = biological target: T3, His-C3d E1110A (human, UniProt P01024 996-1303); assay: SPR, relative to wild type C3d
# T3 construct: domain: C3d; not shown: His-tag
# T3 sequence (P01024 996-1303 E1110A limits assumed): as the sequence (P01024 996-1303 limits assumed) above, with E115A counted along it
# [6] = biological target: T4, His-C3d (recombinant human complement C3d, wild type) (human, UniProt P01024 996-1303); assay: SPR, relative to wild type C3d
# T4 construct: domain: C3d; Produced in E. coli; also called C3d Wt; TED; not shown: His-tag
# T4 sequence (P01024 996-1303 limits assumed): as the sequence (P01024 996-1303 limits assumed) above
# His-C3d L1109A [7] = biological target: T5, His-C3d L1109A (human, UniProt P01024 996-1303); assay: SPR, relative to wild type C3d
# T5 construct: domain: C3d; not shown: His-tag
# T5 sequence (P01024 996-1303 L1109A limits assumed): as the sequence (P01024 996-1303 limits assumed) above, with L114A counted along it
# [8] = biological target: T6, C3c (fragment of human complement C3) (human, UniProt P01024 23-667; P01024 749-954; P01024 1321-1663); assay: SPR, biotinylated ISG65 immobilised, C3c as analyte
# T6 construct: domain: C3c
# T6 sequence (P01024 23-667 limits assumed, chain 1 of 3): as the sequence (P01024 23-667 limits assumed, chain 1 of 2) above
# T6 sequence (P01024 749-954 limits assumed, chain 2 of 3): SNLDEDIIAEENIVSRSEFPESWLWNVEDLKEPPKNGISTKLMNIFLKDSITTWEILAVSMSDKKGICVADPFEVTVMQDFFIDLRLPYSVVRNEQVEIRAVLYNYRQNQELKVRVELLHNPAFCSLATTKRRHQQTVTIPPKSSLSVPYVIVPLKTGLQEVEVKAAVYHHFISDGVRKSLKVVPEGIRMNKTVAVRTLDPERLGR
# T6 sequence (P01024 1321-1663 limits assumed, chain 3 of 3): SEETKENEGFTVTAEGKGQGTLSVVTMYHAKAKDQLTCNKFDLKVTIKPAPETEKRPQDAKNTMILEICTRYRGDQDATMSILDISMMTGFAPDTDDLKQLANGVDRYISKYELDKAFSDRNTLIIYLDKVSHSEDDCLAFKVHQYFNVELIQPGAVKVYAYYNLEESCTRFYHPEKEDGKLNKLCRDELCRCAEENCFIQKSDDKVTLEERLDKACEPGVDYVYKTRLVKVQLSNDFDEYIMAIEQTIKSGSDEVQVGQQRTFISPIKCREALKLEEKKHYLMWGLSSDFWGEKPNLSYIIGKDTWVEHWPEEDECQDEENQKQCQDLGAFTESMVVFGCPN
# [9] = biological target: T7, C3a (ANA domain of human complement C3, released) (human, UniProt P01024 672-748); assay: SPR BIAcore T200, biotinylated ISG65-Avi immobilised, C3a as analyte
# T7 construct: domain: C3a
# T7 sequence (P01024 672-748 limits assumed): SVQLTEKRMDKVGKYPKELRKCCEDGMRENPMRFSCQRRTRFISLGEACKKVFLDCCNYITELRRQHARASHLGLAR
# [10] = biological target: T1, C3b (human complement C3b); assay: SPR BIAcore T200, biotinylated ISG65-Avi immobilised, C3b as analyte
# [11] = biological target: T4, His-C3d (recombinant human complement …); assay: SPR BIAcore T200, biotinylated ISG65-Avi immobilised, C3d Wt as analyte
# [12] = biological target: T8, C3 (H2O) (human complement C3 with hydrolysed thioester) (human, UniProt P01024 23-667; P01024 672-1663); assay: SPR BIAcore T200, biotinylated ISG65-Avi immobilised, C3 (H2O) as analyte
# T8 construct: mature
# T8 sequence (P01024 23-667 limits assumed, chain 1 of 2): as the sequence (P01024 23-667 limits assumed, chain 1 of 2) above
# T8 sequence (P01024 672-1663 limits assumed, chain 2 of 2): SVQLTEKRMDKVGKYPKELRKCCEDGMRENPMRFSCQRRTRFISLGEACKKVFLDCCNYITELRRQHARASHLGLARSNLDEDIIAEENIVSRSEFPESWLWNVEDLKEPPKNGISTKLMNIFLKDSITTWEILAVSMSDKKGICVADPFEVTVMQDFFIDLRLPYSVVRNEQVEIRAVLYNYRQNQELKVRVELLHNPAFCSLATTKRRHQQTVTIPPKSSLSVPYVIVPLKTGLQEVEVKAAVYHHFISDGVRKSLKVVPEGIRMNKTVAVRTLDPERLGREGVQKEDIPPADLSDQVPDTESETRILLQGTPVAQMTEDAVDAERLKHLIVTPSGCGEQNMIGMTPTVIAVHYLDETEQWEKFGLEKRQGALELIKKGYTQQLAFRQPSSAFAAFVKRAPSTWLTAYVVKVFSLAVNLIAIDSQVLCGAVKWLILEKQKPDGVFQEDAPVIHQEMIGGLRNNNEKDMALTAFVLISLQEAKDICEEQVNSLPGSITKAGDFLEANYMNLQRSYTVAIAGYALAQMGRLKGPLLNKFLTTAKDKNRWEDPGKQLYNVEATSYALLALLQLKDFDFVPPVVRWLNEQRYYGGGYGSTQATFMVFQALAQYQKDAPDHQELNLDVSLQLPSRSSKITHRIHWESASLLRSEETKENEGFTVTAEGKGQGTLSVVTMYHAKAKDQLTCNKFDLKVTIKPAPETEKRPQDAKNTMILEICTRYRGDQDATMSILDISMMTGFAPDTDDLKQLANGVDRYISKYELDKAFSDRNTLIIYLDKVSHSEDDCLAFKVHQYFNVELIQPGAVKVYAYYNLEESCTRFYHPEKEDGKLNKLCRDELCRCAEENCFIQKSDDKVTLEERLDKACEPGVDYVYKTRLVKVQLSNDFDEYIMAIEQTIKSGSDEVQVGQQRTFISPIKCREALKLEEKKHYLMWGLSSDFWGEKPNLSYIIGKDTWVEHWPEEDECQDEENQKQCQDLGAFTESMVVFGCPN
# [13] = biological target: T1, C3b (human complement C3b); assay: SPR BIAcore T200, biotinylated ISG65-Avi immobilised, C3b as analyte; kon1
# [14] = biological target: T1, C3b (human complement C3b); assay: SPR BIAcore T200, biotinylated ISG65-Avi immobilised, C3b as analyte; koff1
# His-C3d L1109A [15] = biological target: T5, His-C3d L1109A; assay: SPR BIAcore T200, biotinylated ISG65-Avi immobilised, C3d L1109A as analyte
# [16] = biological target: T4, His-C3d (recombinant human complement …); assay: SPR BIAcore T200, biotinylated ISG65-Avi immobilised, C3d Wt as analyte; kon1
# [17] = biological target: T4, His-C3d (recombinant human complement …); assay: SPR BIAcore T200, biotinylated ISG65-Avi immobilised, C3d Wt as analyte; koff1
# [18] = biological target: T8, C3 (H2O) (human complement C3 with …); assay: SPR BIAcore T200, biotinylated ISG65-Avi immobilised, C3 (H2O) as analyte; kon1
# [19] = biological target: T8, C3 (H2O) (human complement C3 with …); assay: SPR BIAcore T200, biotinylated ISG65-Avi immobilised, C3 (H2O) as analyte; koff1
# [20] = biological target: T9, Native human complement C3 (human, UniProt P01024 23-667; P01024 672-1663); assay: SPR BIAcore T200, biotinylated ISG65-Avi immobilised, native C3 as analyte; kon1; kon1, first step of the two-step fit
# T9 construct: mature; also called native C3; human C3
# T9 sequence (P01024 23-667 limits assumed, chain 1 of 2): as the sequence (P01024 23-667 limits assumed, chain 1 of 2) above
# T9 sequence (P01024 672-1663 limits assumed, chain 2 of 2): as the sequence (P01024 672-1663 limits assumed, chain 2 of 2) above
# [21] = biological target: T9, Native human complement C3; assay: SPR BIAcore T200, biotinylated ISG65-Avi immobilised, native C3 as analyte; koff1; koff1, first step of the two-step fit
# [22] = biological target: T9, Native human complement C3; assay: SPR BIAcore T200, biotinylated ISG65-Avi immobilised, native C3 as analyte; overall KD of a two-step fit (kon1, kon2, koff1, koff2)
binder,measurement,setting,value
B1,"relative AP50 of human plasma, day 0",[1],6 fold
same,Kd,[2],27.9 nM
same,kon,[3],1e+06 M⁻¹ s⁻¹
same,koff,[4],0.04 s⁻¹
B2,binding result,[5],no binding (tested: ISG65 1.5-100 nM)
B3,ISG65 binding (%),His-C3d E1110A,8%
same,ISG65 binding (%),[6],100%
same,ISG65 binding (%),His-C3d L1109A [7],45%
same,binding result,[8],no binding (tested: 280 nM)
same,Kd,[9],18.1 µM
same,Kd,[10],80.9 nM
same,Kd,[11],7.2 nM
same,Kd,[12],18 nM
same,kon,[13],262000 M⁻¹ s⁻¹
same,koff,[14],0.0212 s⁻¹
same,Kd,His-C3d L1109A [15],52.9 nM
same,kon,[16],5.24e+06 M⁻¹ s⁻¹
same,koff,[17],0.0379 s⁻¹
same,kon,[18],942000 M⁻¹ s⁻¹
same,koff,[19],0.017 s⁻¹
same,kon,[20],81800 M⁻¹ s⁻¹
same,koff,[21],0.0543 s⁻¹
same,Kd,[22],129 nM

# — patent US20260055148A1 (USTAV ORGANICKE CHEMIE A BIOCHEMIE AV CR V V I, published 2026)
